The target in the test is TAG-72 positive bovine submaxillary mucin (BSM) (bovine). The test is described as follows: relative affinity constant from competition RIA on BSM.

“humanized monoclonal antibody CC49 (HuCC49)”: the Ka is 3.2e+08 M⁻¹.

The record behind these values is EP1127148B1.
